Patent US8216581 (University of Pennsylvania, dated 2012)

Tests used:
[1] = biological target: T1, GPIIb/IIIa on intact human platelets (human, UniProt P08514 32-1039; P05106 27-788); experiment: flow cytometry on intact platelets
T1 construct: whole, on cells; also called platelet GPIIb/IIIa; αIIbβ3

immobilized GPIa/IIa = biological target: T2, immobilized GPIa/IIa (UniProt P17301 30-1181; P05556 21-798); experiment: ELISA (PakAuto kit), soluble Fab
T2 construct: Antigen of the PakAuto ELISA kit
Method: Antibodies to platelet GPIIb/IIIa, GPIb/IX, or GPIa/IIa were measured by using a PakAuto kit (GTI, Brookfield, Wis.); those to cardiolipin were assessed with a QuantaLite kit (Inova, San Diego, Calif.).

[2] = biological target: T3, vitronectin receptor (αvβ3) on CHO cells (UniProt P06756 31-1048; P05106 27-788, limits assumed); experiment: flow cytometry on transfected CHO cells
T3 construct: whole, on cells
T3 sequence (P06756 31-1048 limits assumed, chain 1 of 2): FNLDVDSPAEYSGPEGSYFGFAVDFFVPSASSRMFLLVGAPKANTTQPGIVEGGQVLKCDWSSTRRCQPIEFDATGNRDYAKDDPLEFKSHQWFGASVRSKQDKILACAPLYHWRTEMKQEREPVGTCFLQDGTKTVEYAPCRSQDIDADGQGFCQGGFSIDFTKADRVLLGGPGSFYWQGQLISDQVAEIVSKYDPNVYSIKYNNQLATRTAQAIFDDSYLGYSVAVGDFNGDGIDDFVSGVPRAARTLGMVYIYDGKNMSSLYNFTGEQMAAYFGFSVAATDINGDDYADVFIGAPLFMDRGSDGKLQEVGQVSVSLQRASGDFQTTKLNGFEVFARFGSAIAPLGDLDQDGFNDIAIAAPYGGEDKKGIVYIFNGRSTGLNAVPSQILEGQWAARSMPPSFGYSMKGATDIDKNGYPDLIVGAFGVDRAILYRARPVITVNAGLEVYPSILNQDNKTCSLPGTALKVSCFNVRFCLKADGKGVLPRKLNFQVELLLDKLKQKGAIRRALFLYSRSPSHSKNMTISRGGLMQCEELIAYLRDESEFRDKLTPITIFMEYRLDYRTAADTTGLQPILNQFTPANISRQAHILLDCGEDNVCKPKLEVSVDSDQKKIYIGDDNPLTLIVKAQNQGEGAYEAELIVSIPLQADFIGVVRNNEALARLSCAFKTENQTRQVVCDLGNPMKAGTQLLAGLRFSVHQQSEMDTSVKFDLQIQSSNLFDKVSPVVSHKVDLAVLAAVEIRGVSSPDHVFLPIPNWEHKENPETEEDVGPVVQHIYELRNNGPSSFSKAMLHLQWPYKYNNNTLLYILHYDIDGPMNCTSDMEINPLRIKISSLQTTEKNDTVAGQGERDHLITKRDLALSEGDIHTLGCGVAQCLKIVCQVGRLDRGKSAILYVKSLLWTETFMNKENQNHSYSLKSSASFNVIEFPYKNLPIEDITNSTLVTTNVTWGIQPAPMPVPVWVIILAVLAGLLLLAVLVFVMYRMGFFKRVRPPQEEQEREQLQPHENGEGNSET
T3 sequence (P05106 27-788 limits assumed, chain 2 of 2): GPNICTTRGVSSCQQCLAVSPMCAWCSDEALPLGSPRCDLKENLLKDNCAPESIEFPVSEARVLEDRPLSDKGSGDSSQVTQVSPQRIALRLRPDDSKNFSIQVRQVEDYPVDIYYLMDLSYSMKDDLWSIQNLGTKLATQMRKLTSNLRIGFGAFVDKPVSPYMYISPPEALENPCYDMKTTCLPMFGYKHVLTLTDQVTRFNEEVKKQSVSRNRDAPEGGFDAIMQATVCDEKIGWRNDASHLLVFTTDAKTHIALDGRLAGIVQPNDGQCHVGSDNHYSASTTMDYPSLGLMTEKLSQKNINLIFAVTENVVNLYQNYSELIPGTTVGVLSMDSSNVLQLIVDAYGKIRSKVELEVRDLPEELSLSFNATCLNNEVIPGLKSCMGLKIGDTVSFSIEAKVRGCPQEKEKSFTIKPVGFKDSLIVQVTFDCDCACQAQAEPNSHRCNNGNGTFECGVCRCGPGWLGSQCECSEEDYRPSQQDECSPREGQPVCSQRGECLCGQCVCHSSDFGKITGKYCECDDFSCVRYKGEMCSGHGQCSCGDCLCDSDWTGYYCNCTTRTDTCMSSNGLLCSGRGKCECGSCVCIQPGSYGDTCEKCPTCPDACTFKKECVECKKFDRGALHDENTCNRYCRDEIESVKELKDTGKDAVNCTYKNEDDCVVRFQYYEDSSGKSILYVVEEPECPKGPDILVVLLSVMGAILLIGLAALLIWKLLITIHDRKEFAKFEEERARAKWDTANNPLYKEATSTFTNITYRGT

binding result [1] | binding result (immobilized GPIa/IIa) | binding result [2] | Binder
no binding | – | – | H44L126 (Fab, V domains shown, Soluble Fab) VH: QVQLVESGGGVVQPGRSLRLSCAASGFTFSYYAMVWVRQAPGKGLEWVAVISNDGRNKYYADSVKGRFTISRDNAKNTLYLQMNSLRVEDTAVYYCARLGYWGPGTLVTVSS VL: DIQMTQSPSSLSASVGDRVIVTCRASQSISSYVSWYQQKPGKAPKLLISTTSTLQSGVPSRFSGSASGTDFTLTISSLQPEDFATYYCQQSSSRPLTFGQGTKVEIK
– | no binding | no binding | H44L4 (Fab, V domains shown, their results are put here; also called anti-GPIIb/IIIa platelet autoantibody; ITP patient A antibody H44L4) VH: QVQLVESGGGVVQPGRSLRLSCAASGFTFSYYAMVWVRQAPGKGLEWVAVISNDGRNKYYADSVKGRFTISRDNAKNTLYLQMNSLRVEDTAVYYCARLGYWGPGTLVTVSS VL: DIQMTQSPSSLSVSVGDRVTITCRASQTITMYLNWYQQKPGKAPKLLIYAGSSLPSGVPPRFSGSGSGTDFTLTISSLQPEDFATYYCQQSYSTLTFGGGTKVEMK
no binding | – | – | H44L127 (Fab, V domains shown, Soluble Fab) VH: QVQLVESGGGVVQPGRSLRLSCAASGFTFSYYAMVWVRQAPGKGLEWVAVISNDGRNKYYADSVKGRFTISRDNAKNTLYLQMNSLRVEDTAVYYCARLGYWGPGTLVTVSS VL: DIQMTQSPSSLSASVGDRVTITCRASQTITSFLNWYQQKRGKAPKLLIYGASTLQSGVPSRFSGSGSGTDFTLTISSLQPEDVATYYCQQTYSQPLTFGQGTKVEIK
no binding | – | – | H44L128 (Fab, V domains shown, Soluble Fab) VH: QVQLVESGGGVVQPGRSLRLSCAASGFTFSYYAMVWVRQAPGKGLEWVAVISNDGRNKYYADSVKGRFTISRDNAKNTLYLQMNSLRVEDTAVYYCARLGYWGPGTLVTVSS VL: DIQMTQSPSSLSAFVGDRVTITCRASQSITSYLNWYQQKPGKAPNLLIYAASSLQSGVPSRFSGSGSGTEFTLTISSLQPEDYATYYCQQRYSYILTFGQGTKVEIK
